Experimental data from IntAct's records for PubMed 24968893.

B1: Autophagy-related protein 19 (Saccharomyces cerevisiae), P35193 (parent)
chain: MNNSKTNQQMNTSMGYPLTVYDECNKFQLIVPTLDANIMLWCIGQLSLLNDSNGCKHLFWQPNDKSNVRILLNNYDYGHLFKYLQCQRKCSVYIGEGTLKKYNLTISTSFDNFLDLTPSEEKESLCREDAHEDPVSPKAGSEEEISPNSTSNVVVSRECLDNFMKQLLKLEESLNKLELEQKVTNKEPNHRISGTIDIPEDRSELVNFFTELKTVKQLEDVFQRYHDYERLSQECDSKTEIASDHSKKETKIEVEPPNERSLQITMNQRDNSLYFQLFNNTNSVLAGNCKLKFTDAGDKPTTQIIDMGPHEIGIKEYKEYRYFPYALDLEAGSTIEIENQYGEVIFLGKYGSSPMINLRPPSRLSAESLQASQEPFYSFQIDTLPELDDSSIISTSISLSYDGDDNEKALTWEEL
partner: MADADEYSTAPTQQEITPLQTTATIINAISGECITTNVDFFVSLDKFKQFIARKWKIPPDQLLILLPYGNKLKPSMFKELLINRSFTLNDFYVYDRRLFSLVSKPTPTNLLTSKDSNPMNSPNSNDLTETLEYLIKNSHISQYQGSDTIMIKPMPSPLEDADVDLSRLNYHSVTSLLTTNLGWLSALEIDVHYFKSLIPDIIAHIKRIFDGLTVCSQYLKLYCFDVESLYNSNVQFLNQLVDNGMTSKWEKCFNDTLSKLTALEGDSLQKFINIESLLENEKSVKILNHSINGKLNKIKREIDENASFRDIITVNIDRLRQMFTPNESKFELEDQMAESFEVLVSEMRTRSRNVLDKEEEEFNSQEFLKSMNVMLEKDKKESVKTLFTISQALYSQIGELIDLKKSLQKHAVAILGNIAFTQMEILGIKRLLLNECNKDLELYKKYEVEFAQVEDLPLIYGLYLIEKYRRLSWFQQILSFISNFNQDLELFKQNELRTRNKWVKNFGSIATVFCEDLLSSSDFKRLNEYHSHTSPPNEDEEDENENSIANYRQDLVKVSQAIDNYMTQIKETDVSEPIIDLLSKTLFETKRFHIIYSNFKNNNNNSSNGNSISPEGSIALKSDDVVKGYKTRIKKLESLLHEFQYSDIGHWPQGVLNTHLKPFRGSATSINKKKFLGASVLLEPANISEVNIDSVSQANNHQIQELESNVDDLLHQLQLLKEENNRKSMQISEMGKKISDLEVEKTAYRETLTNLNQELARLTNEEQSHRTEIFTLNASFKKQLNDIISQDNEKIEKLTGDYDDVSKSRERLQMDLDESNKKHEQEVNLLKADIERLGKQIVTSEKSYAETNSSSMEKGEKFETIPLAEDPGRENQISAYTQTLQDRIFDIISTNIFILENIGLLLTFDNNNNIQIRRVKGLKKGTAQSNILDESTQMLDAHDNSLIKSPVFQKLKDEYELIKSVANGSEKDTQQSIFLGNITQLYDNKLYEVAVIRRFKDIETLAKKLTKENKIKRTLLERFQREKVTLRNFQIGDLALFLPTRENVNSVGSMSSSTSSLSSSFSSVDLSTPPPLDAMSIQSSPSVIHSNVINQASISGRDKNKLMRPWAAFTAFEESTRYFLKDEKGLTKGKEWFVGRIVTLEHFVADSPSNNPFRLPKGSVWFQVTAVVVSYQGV
B2: Serine/threonine-protein kinase ATG1 (Saccharomyces cerevisiae), P53104 (parent)
chain: MGDIKNKDHTTSVNHNLMASAGNYTAEKEIGKGSFATVYRGHLTSDKSQHVAIKEVSRAKLKNKKLLENLEIEIAILKKIKHPHIVGLIDCERTSTDFYLIMEYCALGDLTFLLKRRKELMENHPLLRTVFEKYPPPSENHNGLHRAFVLSYLQQLASALKFLRSKNLVHRDIKPQNLLLSTPLIGYHDSKSFHELGFVGIYNLPILKIADFGFARFLPNTSLAETLCGSPLYMAPEILNYQKYNAKADLWSVGTVVFEMCCGTPPFRASNHLELFKKIKRANDVITFPSYCNIEPELKELICSLLTFDPAQRIGFEEFFANKVVNEDLSSYELEDDLPELESKSKGIVESNMFVSEYLSKQPKSPNSNLAGHQSMADNPAELSDALKNSNILTAPAVKTDHTQAVDKKASNNKYHNSLVSDRSFEREYVVVEKKSVEVNSLADEVAQAGFNPNPIKHPTSTQNQNVLLNEQFSPNNQQYFQNQGENPRLLRATSSSSGGSDGSRRPSLVDRRLSISSLNPSNALSRALGIASTRLFGGANQQQQQQQITSSPPYSQTLLNSQLFHELTENIILRIDHLQHPETLKLDNTNIVSILESLAAKAFVVYSYAEVKFSQIVPLSTTLKGMANFENRRSMDSNAIAEEQDSDDAEEEDETLKKYKEDCLSTKTFGKGRTLSATSQLSATFNKLPRSEMILLCNEAIVLYMKALSILSKSMQVTSNWWYESQEKSCSLRVNVLVQWLREKFNECLEKADFLRLKINDLRFKHASEVAENQTLEEKGSSEEPVYLEKLLYDRALEISKMAAHMELKGENLYNCELAYATSLWMLETSLDDDDFTNAYGDYPFKTNIHLKSNDVEDKEKYHSVLDENDRIIIRKYIDSIANRLKILRQKMNHQN
partner: B1 chain
B3: Autophagy-related protein 19 (Saccharomyces cerevisiae), P35193 (parent)
chain: B1 chain
partner: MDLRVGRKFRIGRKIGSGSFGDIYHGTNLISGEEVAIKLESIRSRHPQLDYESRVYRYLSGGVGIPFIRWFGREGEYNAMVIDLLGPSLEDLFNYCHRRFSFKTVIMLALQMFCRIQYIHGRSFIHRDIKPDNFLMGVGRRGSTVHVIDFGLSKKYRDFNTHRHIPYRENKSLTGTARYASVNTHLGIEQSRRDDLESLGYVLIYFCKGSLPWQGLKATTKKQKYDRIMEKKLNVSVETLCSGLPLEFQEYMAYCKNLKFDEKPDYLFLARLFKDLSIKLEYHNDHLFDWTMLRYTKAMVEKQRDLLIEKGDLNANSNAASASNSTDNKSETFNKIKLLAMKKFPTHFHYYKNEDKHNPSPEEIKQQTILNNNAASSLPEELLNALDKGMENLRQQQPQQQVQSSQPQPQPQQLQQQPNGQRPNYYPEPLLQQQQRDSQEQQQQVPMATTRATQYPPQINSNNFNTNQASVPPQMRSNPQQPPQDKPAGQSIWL
B4: Autophagy-related protein 19 (Saccharomyces cerevisiae), P35193 (parent)
chain: B1 chain
partner: B2 chain

Variants of: B1
Conditions: with atg11_yeast ATG11, Q12527

Variant	effect of a mutation on the interaction
MNNSKTNQQMNTSMGYPLTVYDECNKFQLIVPTLDANIMLWCIGQLSLLNDSNGCKHLFWQPNDKSNVRILLNNYDYGHLFKYLQCQRKCSVYIGEGTLKKYNLTISTSFDNFLDLTPSEEKESLCREDAHEDPVSPKAGSEEEISPNSTSNVVVSRECLDNFMKQLLKLEESLNKLELEQKVTNKEPNHRISGTIDIPEDRSELVNFFTELKTVKQLEDVFQRYHDYERLSQECDSKTEIASDHSKKETKIEVEPPNERSLQITMNQRDNSLYFQLFNNTNSVLAGNCKLKFTDAGDKPTTQIIDMGPHEIGIKEYKEYRYFPYALDLEAGSTIEIENQYGEVIFLGKYGSSPMINLRPPSRLSAESLQASQEPFYSFQIDTLPELDDDDIISTDISLSYDGDDNEKALTWEEL [S390D;S391D;S396D]	increasing interaction

Variants of: B1
Conditions: with atg11_yeast ATG11, Q12527
Remark: another data set of the same source

Variant	effect of a mutation on the interaction
MNNSKTNQQMNTSMGYPLTVYDECNKFQLIVPTLDANIMLWCIGQLSLLNDSNGCKHLFWQPNDKSNVRILLNNYDYGHLFKYLQCQRKCSVYIGEGTLKKYNLTISTSFDNFLDLTPSEEKESLCREDAHEDPVSPKAGSEEEISPNSTSNVVVSRECLDNFMKQLLKLEESLNKLELEQKVTNKEPNHRISGTIDIPEDRSELVNFFTELKTVKQLEDVFQRYHDYERLSQECDSKTEIASDHSKKETKIEVEPPNERSLQITMNQRDNSLYFQLFNNTNSVLAGNCKLKFTDAGDKPTTQIIDMGPHEIGIKEYKEYRYFPYALDLEAGSTIEIENQYGEVIFLGKYGSSPMINLRPPSRLSAESLQASQEPFYSFQIDTLPELDDAAIISTAISLSYDGDDNEKALTWEEL [S390A;S391A;S396A]	disrupting interaction

Variants of: B1
Conditions: with atg11_yeast ATG11, Q12527
Remark: another data set of the same source

Variant	effect of a mutation on the interaction
MNNSKTNQQMNTSMGYPLTVYDECNKFQLIVPTLDANIMLWCIGQLSLLNDSNGCKHLFWQPNDKSNVRILLNNYDYGHLFKYLQCQRKCSVYIGEGTLKKYNLTISTSFDNFLDLTPSEEKESLCREDAHEDPVSPKAGSEEEISPNSTSNVVVSRECLDNFMKQLLKLEESLNKLELEQKVTNKEPNHRISGTIDIPEDRSELVNFFTELKTVKQLEDVFQRYHDYERLSQECDSKTEIASDHSKKETKIEVEPPNERSLQITMNQRDNSLYFQLFNNTNSVLAGNCKLKFTDAGDKPTTQIIDMGPHEIGIKEYKEYRYFPYALDLEAGSTIEIENQYGEVIFLGKYGSSPMINLRPPSRLSAESLQASQEPFYSFQIDTLPELDDAAIISTAISLSYDGDDNEKALTWEEL [S390A;S391A;S396A]	disrupting interaction

Variants of: B2
Conditions: with atg19_yeast ATG19, P35193

Variant	effect of a mutation on the interaction
D211A	disrupting interaction

Variants of: B3
Conditions: with hrr25_yeast HRR25, P29295

Variant	effect of a mutation on the interaction
MNNSKTNQQMNTSMGYPLTVYDECNKFQLIVPTLDANIMLWCIGQLSLLNDSNGCKHLFWQPNDKSNVRILLNNYDYGHLFKYLQCQRKCSVYIGEGTLKKYNLTISTSFDNFLDLTPSEEKESLCREDAHEDPVSPKAGSEEEISPNSTSNVVVSRECLDNFMKQLLKLEESLNKLELEQKVTNKEPNHRISGTIDIPEDRSELVNFFTELKTVKQLEDVFQRYHDYERLSQECDSKTEIASDHSKKETKIEVEPPNERSLQITMNQRDNSLYFQLFNNTNSVLAGNCKLKFTDAGDKPTTQIIDMGPHEIGIKEYKEYRYFPYALDLEAGSTIEIENQYGEVIFLGKYGSSPMINLRPPSRLSAESLQASQEPFYSFQIDTLPELDDAAIISTAISLSYDGDDNEKALTWEEL [S390A;S391A;S396A]	disrupting interaction

Variants of: B4
Conditions: with atg1_yeast ATG1, P53104

Variant	effect of a mutation on the interaction
MNNSKTNQQMNTSMGYPLTVYDECNKFQLIVPTLDANIMLWCIGQLSLLNDSNGCKHLFWQPNDKSNVRILLNNYDYGHLFKYLQCQRKCSVYIGEGTLKKYNLTISTSFDNFLDLTPSEEKESLCREDAHEDPVSPKAGSEEEISPNSTSNVVVSRECLDNFMKQLLKLEESLNKLELEQKVTNKEPNHRISGTIDIPEDRSELVNFFTELKTVKQLEDVFQRYHDYERLSQECDSKTEIASDHSKKETKIEVEPPNERSLQITMNQRDNSLYFQLFNNTNSVLAGNCKLKFTDAGDKPTTQIIDMGPHEIGIKEYKEYRYFPYALDLEAGSTIEIENQYGEVIFLGKYGSSPMINLRPPSRLSAESLQASQEPFYSFQIDTLPELDDAAIISTAISLSYDGDDNEKALTWEEL [S390A;S391A;S396A]	disrupting interaction

Variants of: B4
Conditions: with atg1_yeast ATG1, P53104
Remark: another data set of the same source

Variant	effect of a mutation on the interaction
MNNSKTNQQMNTSMGYPLTVYDECNKFQLIVPTLDANIMLWCIGQLSLLNDSNGCKHLFWQPNDKSNVRILLNNYDYGHLFKYLQCQRKCSVYIGEGTLKKYNLTISTSFDNFLDLTPSEEKESLCREDAHEDPVSPKAGSEEEISPNSTSNVVVSRECLDNFMKQLLKLEESLNKLELEQKVTNKEPNHRISGTIDIPEDRSELVNFFTELKTVKQLEDVFQRYHDYERLSQECDSKTEIASDHSKKETKIEVEPPNERSLQITMNQRDNSLYFQLFNNTNSVLAGNCKLKFTDAGDKPTTQIIDMGPHEIGIKEYKEYRYFPYALDLEAGSTIEIENQYGEVIFLGKYGSSPMINLRPPSRLSAESLQASQEPFYSFQIDTLPELDDDDIISTDISLSYDGDDNEKALTWEEL [S390D;S391D;S396D]	disrupting interaction
